Experimental data published in a protein production outcome set (Wang et al. 2014).

Test: label from the status in PepcDB records

Sequence | protein production
MAPHPEAAALLARSHRLGADPRNTNYAGGNASAKGTATDPVTGGDVELMWVKGSGGDLGTLTEAGLAVLRLDRLHALKGVYPGVEREDEMVAAFDYCLHGKGGAAPSIDTAMHGLVDAAHVDHLHPDSGIALACAADGEKLTAECFGDSVAWVPWRRPGFQLGLDIAAVKEANPQTIGCVLGGHGITAWGATAEECERNSLHIIRTAEAFLAERGKAEPFGPLEHHHHHH | failed
MANNARIEHTSSEGHEGDATCVAYFDGQLFSGGADGKIRIWSPELQLLATVNAHEAYIYCMAINQHGKVYSSSCDGQVHFMLPPYGDESVQELFRCDDAIQAMYCDGSVLYTGDDKGVVTTWTNDRMLFKYSLVEEVKSLAGEQNLIYTVRDLDVVVSQVAEGKSGKYSNKAVIPGKSPLHLLGPMVDGKRSYLAFPDRSGMGLQLVNNLSQQQYSKIWHLPDCHELIINALCGDETYLYSGGYDKKVKGWTDLEAGKPKALGEVEVGSCVNSICCGANDTVYIASSDGFIRSAKFV | failed
AHHHHHHGSVVKRTMTKKFLEEAFAGESMAHMRYLIFAEKAEQEGFPNIAKLFRAIAYAEFVHAKNHFIALGKLGKTPENLQMGIEGETFEVEEMYPVYNKAAEFQGEKEAVRTTHYALEAEKIHAELYRKAKEKAEKGEDIEIKKVYICPICGYTAVDEAPEYCPVCGAPKEKFVVFE | not failed
LRETEARLQRLADNLPGMLYEFCLKPDGTMTFPYVSSGCLELIECSPQELQDDASLTFASTYPEDIIGLQEAIANSAKTLQNFEHEWRIITSSGQLKWVKGASRPERKPGGEITWYGYLLDVSEQQAALRERKQADQQ | not failed
VLTPRHIATLFTKLIPFKKNDKILDLCCGTGAFLIAGMNKLLSLKGIDAQNVKSNQLLGFEINPTMYICAISNMLFRGDGKSKIYNMDSINDDKVNKIISESAPTIGFINPPYSGKENKEDPTPKEITFLKKC | failed
MVRLEDYGTWDEALKRLEASRKALLALLREADPAWLSAPLREGAWTPLMVAEHVALVEDSTARVLRRLRRLAAGENLPPVPVKPGEFKDGKPQAPEGVRPKGGLSLEEVLALLDRARAFLLEEVAKADPQNPATFPHPFFGELNPLGWLRAAAYHEAHHLKALQASLPR | not failed
MKTRSSDAEGDSRGKMIAPVGEGNGGRKRKLVQSNEQKNDIQREEDGRAKRRIVQSSDQKNGKILRGIRGCVSPRCSAQTYQSRFSWYEQDIWTYISRFLDGKSLVKLGATNKWFYKIAMEDTVWRFACLRDLQVPVPFPVSSTWIKIYASAFDGSHSYLFRQKEKHIGAFVLDSRTSLLTESLSGRLKFPREGTIERMLQSSGSCLINDIKSGIWIADLQLVRCPVCDLSTCDGTMQTLDARHIELFLSEGYKDGSWDYNLIGSHKLQKNASAACGAIFDLKHLKESSYSGILNLKSWTGESNDSQPKAVIAPHAVAVHTRLQENEGILVKYHTMKAGTDGDIVSIRISQQLL | failed
MSSTASSVFADETLLFEPATPIANAVPLIFAFPNEYSVGITSLGFQIVWATLAARSDLQVSRLFTDIAEPLPRQPELLGFSLSWELDYVNILAMLEQLGIPLRSRDRGDEHPLVFGGGPTLTANPEPFADFFDVILVGDGEVLLDAFIDAYQPLRDRPRAEKLRQLAQVPGLYIPALYEPIYEAADGAIATIQPIDNDIPVQIEKQTYRGNVLSASTVVTPRAAWESIYMVEVVRSCPEMCRFCLASYLTLPFRTASLEESLQPAIARGLTATQRIGLLGASVTQHPEFPALLDRLGQPEFTDVRLSVASVRTNTVTEKFASILAQRGTKSLTIAVESGSERLRQVINKKLAQAEITEAAVNAKAGGLQGLKLYGMAGVPTETEDDLLATAEMLKGLKKAAPGLRLSYGCSTFVPKAQTPFQWQGVSPKAEKRLQFLQKQLRPQGIEFRPESYSWSVIQALISRGDRRLSSLLERVRHYGESLGSYRRAFKELKGTLPPLDFYVFQDWEPEAPLPWQHLRGPLPVETLRKHRQQAFAIAAAGVGSK | failed
MMARVEKLRELMKENNLQGFLVTSPYNLRYLTNFTGTTGLAMITLDKAFFVTDFRYTEQAAEQATGFTIVKNTGHIFDEVADLAERLQLDNLAFEETQVSFADYSLLEEILPCELVPVMGLIEELREVK | not failed
NIKNILSERVSAAMVAAGLPEGTNPAISLSNRPQFGDYQANGVMGAAKKLKTNPRELATKVVAELDLDGIASKIELAGPGFINIHLDESWLAAQLNEVAQDDFIGVAQRGTT | not failed
